Source: US20110014669A1, “Production of 1,4 Butanediol in a Microorganism” (Microbia, Inc., priority 2009, published 2011)
Like-named read-outs stand apart in the source and are kept apart here.

B1: AdhBZm: Enzyme candidate for BDO biosynthetic pathway step A6, SEQ ID NO. 50 (protein, listed as Zymomonas mobilis)
chain: MASSTFYIPFVNEMGEGSLEKAIKDLNGSGFKNALIVSDAFMNKSGVVKQVADLLKAQGINSAVYDGVMPNPTVTAVLEGLKILKDNNSDFVISLGGGSPHDCAKAIALVATNGGEVKDYEGIDKSKKPALPLMSINTTAGTASEMTRFCIITDEVRHVKMAIVDRHVTPMVSVNDPLLMVGMPKGLTAATGMDALTHAFEAYSSTAATPITDACALKAASMIAKNLKTACDNGKDMPAREAMAYAQFLAGMAFNNASLGYVHAMAHQLGGYYNLPHGVCNAVLLPHVLAYNASVVAGRLKDVGVAMGLDIANLGDKEGAEATIQAVRDLAASIGIPANLTELGAKKEDVPLLADHALKDACALTNPRQGDQKEVEELFLSAF
B2: NosEN: Enzyme candidate for BDO biosynthetic pathway step A3, SEQ ID NO. 16 (protein, listed as Nostoc sp.)
chain: MPLAAVMTAPNQPVEVQQLPDPILEKGGIILETLYSEVCGTDVHLLHGRLEGVPYPIIPGHFSVGRVVETGGAVSDVNGKLIQPGAIATFLDVHETCYNCWYCLVAKASTRCPQRKVYGVTYSAKDGLLGGWSELIYLKPGVKVLTLPEEVSPKQFIAGGCALPTALHAIDRAQIQIGDVVVVQGCGPVGLSAAILALLSGAGKVIVIDKFESRLVVAKSFGVDETLAIKADDPRQHIERVLELTNGHGADVTIEATGIPIAVKEGLNMTRNGGRYVIVGHYTNTGEILINPHLEINLKHIDIRGTWGIDFSHFYRMIELLKRHSDSSKNIAWSSIISRSYTLKEINQALADVEQGSVLKAVIQPNLS
B3: NosENp: nosE alcohol dehydrogenase from Nostoc punctiforme, step A3 enzyme candidate, SEQ ID NO. 18 (protein)
chain: MPLAAVMTAPNQPVEVQQLPEPILEKGGIIIETLYSEVCGTDVHLLHGRLEGVPYPIIPGHFSVGRVVETGGAVSDVNGKLIQPGAIATFLDVHETCYNCWYCLVAKASTRCPKRKVYGVTYSAKDGLLGGWSELIYLKPGVKVLTLPEEVSPKQFIAGGCALPTALHAIDRAQIQIGDVVVVQGCGPVGLSAAILALLSGAGKVIVIDKFESRLVVAKSFGVDETLAIRADDPRQHIERVLELTNGHGADVTIEATGIPIAVKEGLNMTRNGGRYVIVGHYTNTGEILINPHLEINLKHIDIRGTWGIDFSHFYRMIELLKRHSDSSKNIAWSSIISRSYTLKEINQALVDVEQGSVLKAVIQPNLS
modifications: Nostoc punctiforme
B4: NosEAv: Enzyme candidate for BDO biosynthetic pathway step A3, SEQ ID NO. 20 (protein, listed as Anabaena variabilis)
chain: MPKAAVMSAPNQPVVVQQLPDPILEKGGIIVETLYSEVCGTDVHLLHGRLEGVPYPIIPGHFSVGRVVETGGAVSDVNSNLIQPGAIATFLDVHETCYNCWYCLVAKASTRCPQRKVYGVTYSAKEGLLGGWSELIYLKPGVKVLTLPAEVSPKQFIAGGCALPTALHAIDRAQIQIGDVVVVQGCGPVGLSVAILALLSGAGKVIVIDKFESRLAVAKSFGVDETLAIKADDPRQHIERVLELTNGHGADVIIEATGIPIAVKEGLNMTRNGGRYVIVGHYTNTGEILINPHLEINLKHIDIRGTWGIDFSHFYRMIELLKRHSDPKKNIAWENLISRSYTLNEINQALTDVERGSVLKAVIQPNLS
B5: DhaTCf: Enzyme candidate for BDO biosynthetic pathway step A6, SEQ ID NO. 48 (protein, listed as Citrobacter freundii)
chain: MSYRMFDYLVPNVNFFGPNAISVVGERCKLLGGKKALLVTDKGLRAIKDGAVDKTLTHLREAGIDVVVFDGVEPNPKDTNVRDGLEVFRKEHCDIIVTVGGGSPHDCGKGIGIAATHEGDLYSYAGIETLTNPLPPIVAVNTTAGTASEVTRHCVLTNTKTKVKFVIVSWRNLPSVSINDPLLMLGKPAPLTAATGMDALTHAVEAYISKDANPVTDAAAIQAIRLIARNLRQAVALGSNLKARENMAYASLLAGMAFNNANLGYVHAMAHQLGGLYDMPHGVANAVLLPHVARYNLIANPEKFADIAEFMGENTDGLSTMDAAELAIHAIARLSADIGIPQHLRDLGVKEADFPYMAEMALKDGNAFSNPRKGNEKEIAEIFRQAF

How the values were obtained:
[1] = tested on: Corynebacterium glutamicum (ATCC 13032); settings: FIG. 12A
Protocol: (§4) For each experiment, 50 mL of media was filter-sterilized before adding to pre-sterilized 250 mL triple baffled shake flasks. […] Each strain was grown in four different shake flasks.
(§5) Inocula were freshly grown on agar plates, cotton swabbed into a sterile Falcon® tube containing the same medium used in the shake flask and mixed well. The cell suspension was then inoculated into the prepared shake flasks to initiate the growth evaluation. The growth for each strain was monitored by measuring the OD (at 660 nm) and pH over the time course. If the medium contained glucose, such as Difco® Yeast Malt medium (YM), glucose concentration was monitored by using a YSI 2700 Select Biochemistry Analyzer.
(§6) Since different media and growth conditions were used, results were expressed as % of growth where the control, no BDO flask, represented 100% growth.

[2] = tested on: Yarrowia lipolytica (ATCC 20228)
[3] = tested on: S. cerevisiae strains (CEN.PK and Fermentis); settings: 135 g/L of BDO
Protocol: as §4, §5, §6

[4] = tested on: Zymomonas mobilis (ATCC 31821); settings: 90 g/L and 135 g/L of BDO
Protocol: as §4, §5, §6

[5] = tested on: Pseudomonas putida (ATCC 700801)
Protocol: as §4, §5, §6

[6] = tested on: Zygosaccharomyces bailii (ATCC 60594)
4-hydroxybutanal = experiment: Enzyme assay, oxidoreductase (step A6), cell lysates; format: biochemical; design: key: +: measureable activity detected in the assay; −: no measurable activity detected in the assay; settings: BDO biosynthetic pathway step A6
Protocol: (§1) Enzyme expression and crude lysate preparation. The enzymatic activity of each candidate enzyme is evaluated, first in E. coli and subsequently in C. glutamicum. It will be apparent to one of skill in the art that the expression and lysate preparations may need to be modified depending on the host cell and recombinant gene of interest.
E. coli: E. coli strains transformed with expression clones, for example, pUC18 or MB4124 based clones having a medium strong constitutive promoter regulating the recombinant gene of interest, are grown aerobically in LB medium (Difco) containing the appropriate antibiotic(s). At an OD600 of 0.5, IPTG is added to a final concentration of 0.25 mM. The cultures are grown to a final OD600 of 1.5 at which time the cells are collected and harvested by centrifugation. Cell pellets are resuspended in BugBuster (Novagen) reagent containing benzonase and lysozyme. Alternatively, E. coli strains transformed with expression clones, are grown overnight aerobically at 37° C. in BHI containing the appropriate antibiotic(s). 300 μL of fresh overnight culture is used to inoculate 2.7 mL BHI containing 0.25 mM IPTG and the appropriate antibiotic. The cultures are grown aerobically for 4-5 hours at 37° C. at which time the cells are collected and harvested by centrifugation. Cell pellets are frozen at −80° C. for at least 15 minutes, then thawed and resuspended in BugBuster (Novagen) reagent. Lysis and lysate collection are performed according to the manufacturer's instructions and, for example, may involve use of a sonicator and/or French press. Cleared lysates are stored on ice until enzyme assays are performed. […]
(§2) Protein Assays. Protein concentrations in lysates are determined according to the methods of Bradford et al. (Anal. Biochem. 72:248-254 [1976]) or by the method of Smith et al. (Anal. Biochem. 150(1):76-85 [1985]) and lysates are assayed according to the methods below. […]

[7] = tested on: L-glutamate 5-semialdehyde (GSA); experiment: Enzyme assay, oxidoreductase (step A3), cell lysates; format: biochemical; design: key: +: measureable activity detected in the assay; −: no measurable activity detected in the assay; settings: BDO biosynthetic pathway step A3
Protocol: as §1
E. coli: E. coli strains transformed with expression clones, for example, pUC18 or MB4124 based clones having a medium strong constitutive promoter regulating the recombinant gene of interest, are grown aerobically in LB medium (Difco) containing the appropriate antibiotic(s). At an OD600 of 0.5, IPTG is added to a final concentration of 0.25 mM. The cultures are grown to a final OD600 of 1.5 at which time the cells are collected and harvested by centrifugation. Cell pellets are resuspended in BugBuster (Novagen) reagent containing benzonase and lysozyme. Alternatively, E. coli strains transformed with expression clones, are grown overnight aerobically at 37° C. in BHI containing the appropriate antibiotic(s). 300 μL of fresh overnight culture is used to inoculate 2.7 mL BHI containing 0.25 mM IPTG and the appropriate antibiotic. The cultures are grown aerobically for 4-5 hours at 37° C. at which time the cells are collected and harvested by centrifugation. Cell pellets are frozen at −80° C. for at least 15 minutes, then thawed and resuspended in BugBuster (Novagen) reagent. Lysis and lysate collection are performed according to the manufacturer's instructions and, for example, may involve use of a sonicator and/or French press. Cleared lysates are stored on ice until enzyme assays are performed.
C. glutamicum: C. glutamicum strains transformed with MB4124 expression clones containing the recombinant gene of interest are grown aerobically in BHI broth supplemented with the proper antibiotic(s). At an OD600 of 0.5, IPTG is added to a final concentration of 0.25 mM. The cultures are grown to a final OD600 of 1.5 at which time the cells are collected and harvested by centrifugation. The pellet is washed once in one volume of water and resuspended in lysis buffer (1.0 ml 1.0 M HEPES buffer, pH 7.5, 0.5 ml 1M KOH, 10 μl 0.5M EDTA, protease inhibitor cocktail, water to 5 ml; the final pH will vary depending on the individual enzyme being tested) and one volume of 0.1 mm acid washed glass beads. The mixture is repeatedly alternately vortexed and held on ice for 15 seconds, eight times. After centrifugation for 5 min at 4,000 rpm, the supernatant lysate is removed and respun for 20 min at 10,000 rpm. Alternatively, C. glutamicum strains transformed with MB4124 expression clones containing the recombinant gene of interest are grown aerobically overnight in BHI broth supplemented with the proper antibiotic(s). Five mL of fresh overnight culture is used to inoculate 200 mL BHI containing 0.25 mM IPTG and the appropriate antibiotic. The cultures are grown aerobically at 30° C. for 5-7 hours at which time the cells are collected and harvested by centrifugation at 4° C. The pellet is resuspended in 15 mL ice cold 39 mM KH2PO4, 61 mM K2HPO4, 0.5 M KCl and lysed using a BioSpec BeadBeater and following the manufacturer's instructions. […]
as §2

[8] = tested on: L-glutamate 5-semialdehyde (GSA); experiment: In vitro substrate conversion assay, step A3; format: biochemical; design: key: +: measureable activity detected in the assay; −: no measurable activity detected in the assay; settings: BDO biosynthetic pathway step A3
Protocol: In Vitro Substrate Conversion. Most of the enzyme assays described above are based on recording changes in absorbance at a given wavelength. In addition to such spectrophotometric readouts, these assays can also be analyzed by more direct methods using an endpoint assay where the reaction is terminated after a given period of time and the mixture is analyzed via HPLC or LC-MS methods.
(§3) The aldehyde dehydrogenase linked reaction was used for step A5.

[9] = tested on: L-glutamate 5-semialdehyde (GSA); experiment: Bioconversion (feeding) assay, step A3; format: cell-based; design: key: +: measureable activity detected in the assay; −: no measurable activity detected in the assay; settings: BDO biosynthetic pathway step A3
Protocol: Bioconversion assays. The activity of a candidate enzyme towards a given substrate can also be evaluated in vivo using a simple feeding assay. A strain expressing the candidate enzyme is grown in the presence of the substrate for which activity is desired. Samples of the culture are removed periodically and the cells are removed via centrifugation. The culture supernatant is then analyzed (e.g., by LC-MS) to determine how much of the substrate has been removed and how much of a given product is present.
as §3

[10] = 90 g/L and 135 g/L of BDO, loss of cell viability

| Molecule | Enzyme Assay (4-hydroxybutanal) | Enzyme Assay [7] | In Vitro Substrate Conversion Assay [8] | Bioconversion Assay [9] | further results |
| --- | --- | --- | --- | --- | --- |
| OCCCCO [BDO, 1,4-butanediol] |  |  |  |  | growth in the presence of BDO ([1]; 90 g/L and 135 g/L of BDO): grew better than the rest of strains; growth in the presence of BDO ([1]; 135 g/L BDO, compared with Z. mobilis): grew better than Z. mobilis; growth in the presence of BDO ([2]; 20 g/L of BDO): able to grow; growth in the presence of BDO [2, 10]: completely inhibited growth; tolerance to BDO [3]: greater tolerance than E. coli; growth in the presence of BDO [4]: grew better than the rest of strains; cell density in the presence of BDO ([5]; 20 g/L of BDO, relative to no-BDO control): approximately twice of the control; growth in the presence of BDO ([5]; 90 g/L and 135 g/L BDO, FIG. 12B): grew poorly; growth in the presence of BDO ([6]; 20 g/L of BDO): able to grow; growth in the presence of BDO [6, 10]: completely inhibited growth |
| B1 | + |  |  |  |  |
| B2 |  | − | + | + |  |
| B3 |  | + | + | + |  |
| B4 |  | − | + | + |  |
| B5 | − |  |  |  |  |
